In publication PMC7374751, “TIMP-3 facilitates binding of target metalloproteinases to the endocytic receptor LRP-1 and promotes scavenging of MMP-1” (Scientific Reports, 2020) one finds Kd, koff and kon data, which are given here for nine molecules.

To fix the notation:
B1: Receptor-associated protein (RAP), recombinant His-tagged (natural protein, UniProt P30533 35-357, looked up)
chain: YSREKNQPKPSPKRESGEEFRMEKLNQLWEKAQRLHLPPVRLAELHADLKIQERDELAWKKLKLDGLDEDGEKEARLIRNLNVILAKYGLDGKKDARQVTSNSLSGTQEDGLDDPRLEKLWHKAKTSGKFSGEELDKLWREFLHHKEKVHEYNVLLETLSRTEEIHENVISPSDLSDIKGSVLHSRHTELKEKLRSINQGLDRLRRVSHQGYSTEAEFEEPRVIDLWDLAQSANLTDKELEAFREELKHFEAKIEKHNHYQKQLEIAHEKLRHAESVGDGERVSRSREKHALLEGRTKELGYTVKKHLQDLSGRISRARHNEL
B2: FLAG-tagged ADAMTS-4 lacking the C-terminal spacer domain (ADAMTS4-2) (domain or fragment, UniProt O75173 213-685, looked up)
chain: FASLSRFVETLVVADDKMAAFHGAGLKRYLLTVMAAAAKAFKHPSIRNPVSLVVTRLVILGSGEEGPQVGPSAAQTLRSFCAWQRGLNTPEDSDPDHFDTAILFTRQDLCGVSTCDTLGMADVGTVCDPARSCAIVEDDGLQSAFTAAHELGHVFNMLHDNSKPCISLNGPLSTSRHVMAPVMAHVDPEEPWSPCSARFITDFLDNGYGHCLLDKPEAPLHLPVTFPGKDYDADRQCQLTFGPDSRHCPQLPPPCAALWCSGHLNGHAMCQTKHSPWADGTPCGPAQACMGGRCLHMDQLQDFNIPQAGGWGPWGPWGDCSRTCGGGVQFSSRDCTRPVPRNGGKYCEGRRTRFRSCNTEDCPTGSALTFREEQCAAYNHRTDLFKSFPGPMDWVPRYTGVAPQDQCKLTCQAQALGYYYVLEPRVVDGTPCSPDSSSVCVQGRCIHAGCDRIIGSKKKFDKCMVCGGDGSGC
notes: ADAMTS-4 lacking the C-terminal spacer domain
B3: FLAG-tagged N-TIMP-3 (N-terminal domain of TIMP-3) (domain or fragment, UniProt P35625 24-143, looked up)
chain: CTCSPSHPQDAFCNSDIVIRAKVVGKKLVKEGPFGTLVYTIKQMKMYRGFTKMPHVQYIHTEASESLCGLKLEVNKYQYLLTGRVYDGKMYTGLCNFVERWDQLTLSQRKGLNYRYHLGC
B4: FLAG-tagged ADAMTS-5 lacking the C-terminal thrombospondin domain (ADAMTS5-2) (domain or fragment, UniProt Q9UNA0 262-874, looked up)
chain: SISRARQVELLLVADASMARLYGRGLQHYLLTLASIANRLYSHASIENHIRLAVVKVVVLGDKDKSLEVSKNAATTLKNFCKWQHQHNQLGDDHEEHYDAAILFTREDLCGHHSCDTLGMADVGTICSPERSCAVIEDDGLHAAFTVAHEIGHLLGLSHDDSKFCEETFGSTEDKRLMSSILTSIDASKPWSKCTSATITEFLDDGHGNCLLDLPRKQILGPEELPGQTYDATQQCNLTFGPEYSVCPGMDVCARLWCAVVRQGQMVCLTKKLPAVEGTPCGKGRICLQGKCVDKTKKKYYSTSSHGNWGSWGSWGQCSRSCGGGVQFAYRHCNNPAPRNNGRYCTGKRAIYRSCSLMPCPPNGKSFRHEQCEAKNGYQSDAKGVKTFVEWVPKYAGVLPADVCKLTCRAKGTGYYVVFSPKVTDGTECRLYSNSVCVRGKCVRTGCDGIIGSKLQYDKCGVCGGDNSSCTKIVGTFNKKSKGYTDVVRIPEGATHIKVRQFKAKDQTRFTAYLALKKKNGEYLINGKYMISTSETIIDINGTVMNYSGWSHRDDFLHGMGYSATKEILIVQILATDPTKPLDVRYSFFVPKKSTPKVNSVTSHGSNKVGSHT
notes: ADAMTS-5 lacking the C-terminal thrombospondin domain
B5: TIMP-1 (natural protein)
chain: not shown
notes: also called T1
B6: MMP-1ΔC/TIMP-3 complex (complex)
chain 1: FVLTEGNPRWEQTHLTYRIENYTPDLPRADVDHAIEKAFQLWSNVTPLTFTKVSEGQADIMISFVRGDHRDNSPFDGPGGNLAHAFQPGPGIGGDAHFDEDERWTNNFREYNLHRVAAHELGHSLGLSHSTDIGALMYPSYTFSGDVQLAQDDIDGIQAIYGRSQNPVQP
chain 2: CTCSPSHPQDAFCNSDIVIRAKVVGKKLVKEGPFGTLVYTIKQMKMYRGFTKMPHVQYIHTEASESLCGLKLEVNKYQYLLTGRVYDGKMYTGLCNFVERWDQLTLSQRKGLNYRYHLGCNCKIKSCYYLPCFVTSKNECLWTDMLSNFGYPGYQSKHYACIRQKGGYCSWYRGWAPPDKSIINATDP
notes: catalytic domain of human MMP-1; pro-domain removed with APMA; as m8; as m3
B7: ADAMTS5-2/TIMP-3 complex (complex)
chain 1: SISRARQVELLLVADASMARLYGRGLQHYLLTLASIANRLYSHASIENHIRLAVVKVVVLGDKDKSLEVSKNAATTLKNFCKWQHQHNQLGDDHEEHYDAAILFTREDLCGHHSCDTLGMADVGTICSPERSCAVIEDDGLHAAFTVAHEIGHLLGLSHDDSKFCEETFGSTEDKRLMSSILTSIDASKPWSKCTSATITEFLDDGHGNCLLDLPRKQILGPEELPGQTYDATQQCNLTFGPEYSVCPGMDVCARLWCAVVRQGQMVCLTKKLPAVEGTPCGKGRICLQGKCVDKTKKKYYSTSSHGNWGSWGSWGQCSRSCGGGVQFAYRHCNNPAPRNNGRYCTGKRAIYRSCSLMPCPPNGKSFRHEQCEAKNGYQSDAKGVKTFVEWVPKYAGVLPADVCKLTCRAKGTGYYVVFSPKVTDGTECRLYSNSVCVRGKCVRTGCDGIIGSKLQYDKCGVCGGDNSSCTKIVGTFNKKSKGYTDVVRIPEGATHIKVRQFKAKDQTRFTAYLALKKKNGEYLINGKYMISTSETIIDINGTVMNYSGWSHRDDFLHGMGYSATKEILIVQILATDPTKPLDVRYSFFVPKKSTPKVNSVTSHGSNKVGSHT
chain 2: CTCSPSHPQDAFCNSDIVIRAKVVGKKLVKEGPFGTLVYTIKQMKMYRGFTKMPHVQYIHTEASESLCGLKLEVNKYQYLLTGRVYDGKMYTGLCNFVERWDQLTLSQRKGLNYRYHLGCNCKIKSCYYLPCFVTSKNECLWTDMLSNFGYPGYQSKHYACIRQKGGYCSWYRGWAPPDKSIINATDP
notes: ADAMTS-5 lacking the C-terminal thrombospondin domain; as m17; as m3; also called [35S]TIMP-3/ADAMTS5-2
B8: ADAM-10/TIMP-3 complex (complex)
chain 1: TTSAEKNTCQLYIQTDHLFFKYYGTREAVIAQISSHVKAIDTIYQTTDFSGIRNISFMVKRIRINTTADEKDPTNPFRFPNIGVEKFLELNSEQNHDDYCLAYVFTDRDFDDGVLGLAWVGAPSGSSGGICEKSKLYSDGKKKSLNTGIITVQNYGSHVPPKVSHITFAHEVGHNFGSPHDSGTECTPGESKNLGQKENGNYIMYARATSGDKLNNNKFSLCSIRNISQVLEKKRNNCFVESGQPICGNGMVEQGEECDCGYSDQCKDECCFDANQPEGRKCKLKPGKQCSPSQGPCCTAQCAFKSKSEKCRDDSDCAREGICNGFTALCPASDPKPNFTDCNRHTQVCINGQCAGSICEKYGLEECTCASSDGKDDKELCHVCCMKKMDPSTCASTGSVQWSRHFSGRTITLQPGSPCNDFRGYCDVFMRCRLVDADGPLARLKKAIFSPELYENIAE
chain 2: CTCSPSHPQDAFCNSDIVIRAKVVGKKLVKEGPFGTLVYTIKQMKMYRGFTKMPHVQYIHTEASESLCGLKLEVNKYQYLLTGRVYDGKMYTGLCNFVERWDQLTLSQRKGLNYRYHLGCNCKIKSCYYLPCFVTSKNECLWTDMLSNFGYPGYQSKHYACIRQKGGYCSWYRGWAPPDKSIINATDP
modifications: 1:1 non-covalent complex; ADAM10 ectodomain (R&D Systems) taken by convention as mature extracellular region without prodomain (catalytic Zn2+), limits not given; TIMP-3 C-terminal/FLAG tag left …
B9: ADAMTS4-2/TIMP-3 complex (complex)
chain 1: FASLSRFVETLVVADDKMAAFHGAGLKRYLLTVMAAAAKAFKHPSIRNPVSLVVTRLVILGSGEEGPQVGPSAAQTLRSFCAWQRGLNTPEDSDPDHFDTAILFTRQDLCGVSTCDTLGMADVGTVCDPARSCAIVEDDGLQSAFTAAHELGHVFNMLHDNSKPCISLNGPLSTSRHVMAPVMAHVDPEEPWSPCSARFITDFLDNGYGHCLLDKPEAPLHLPVTFPGKDYDADRQCQLTFGPDSRHCPQLPPPCAALWCSGHLNGHAMCQTKHSPWADGTPCGPAQACMGGRCLHMDQLQDFNIPQAGGWGPWGPWGDCSRTCGGGVQFSSRDCTRPVPRNGGKYCEGRRTRFRSCNTEDCPTGSALTFREEQCAAYNHRTDLFKSFPGPMDWVPRYTGVAPQDQCKLTCQAQALGYYYVLEPRVVDGTPCSPDSSSVCVQGRCIHAGCDRIIGSKKKFDKCMVCGGDGSGC
chain 2: CTCSPSHPQDAFCNSDIVIRAKVVGKKLVKEGPFGTLVYTIKQMKMYRGFTKMPHVQYIHTEASESLCGLKLEVNKYQYLLTGRVYDGKMYTGLCNFVERWDQLTLSQRKGLNYRYHLGCNCKIKSCYYLPCFVTSKNECLWTDMLSNFGYPGYQSKHYACIRQKGGYCSWYRGWAPPDKSIINATDP
notes: ADAMTS-4 lacking the C-terminal spacer domain; as m16; as m3; also called [35S]TIMP-3/ADAMTS4-2

The target of this assay is T1, low-density lipoprotein receptor-related protein 1 (LRP-1) (UniProt Q07954 20-4544).
T1 construct: low-density lipoprotein receptor-related protein 1 (LRP-1), bought from Biomac; source: bought: Biomac (Leipzig, Germany)
T1 sequence (Q07954 20-4544): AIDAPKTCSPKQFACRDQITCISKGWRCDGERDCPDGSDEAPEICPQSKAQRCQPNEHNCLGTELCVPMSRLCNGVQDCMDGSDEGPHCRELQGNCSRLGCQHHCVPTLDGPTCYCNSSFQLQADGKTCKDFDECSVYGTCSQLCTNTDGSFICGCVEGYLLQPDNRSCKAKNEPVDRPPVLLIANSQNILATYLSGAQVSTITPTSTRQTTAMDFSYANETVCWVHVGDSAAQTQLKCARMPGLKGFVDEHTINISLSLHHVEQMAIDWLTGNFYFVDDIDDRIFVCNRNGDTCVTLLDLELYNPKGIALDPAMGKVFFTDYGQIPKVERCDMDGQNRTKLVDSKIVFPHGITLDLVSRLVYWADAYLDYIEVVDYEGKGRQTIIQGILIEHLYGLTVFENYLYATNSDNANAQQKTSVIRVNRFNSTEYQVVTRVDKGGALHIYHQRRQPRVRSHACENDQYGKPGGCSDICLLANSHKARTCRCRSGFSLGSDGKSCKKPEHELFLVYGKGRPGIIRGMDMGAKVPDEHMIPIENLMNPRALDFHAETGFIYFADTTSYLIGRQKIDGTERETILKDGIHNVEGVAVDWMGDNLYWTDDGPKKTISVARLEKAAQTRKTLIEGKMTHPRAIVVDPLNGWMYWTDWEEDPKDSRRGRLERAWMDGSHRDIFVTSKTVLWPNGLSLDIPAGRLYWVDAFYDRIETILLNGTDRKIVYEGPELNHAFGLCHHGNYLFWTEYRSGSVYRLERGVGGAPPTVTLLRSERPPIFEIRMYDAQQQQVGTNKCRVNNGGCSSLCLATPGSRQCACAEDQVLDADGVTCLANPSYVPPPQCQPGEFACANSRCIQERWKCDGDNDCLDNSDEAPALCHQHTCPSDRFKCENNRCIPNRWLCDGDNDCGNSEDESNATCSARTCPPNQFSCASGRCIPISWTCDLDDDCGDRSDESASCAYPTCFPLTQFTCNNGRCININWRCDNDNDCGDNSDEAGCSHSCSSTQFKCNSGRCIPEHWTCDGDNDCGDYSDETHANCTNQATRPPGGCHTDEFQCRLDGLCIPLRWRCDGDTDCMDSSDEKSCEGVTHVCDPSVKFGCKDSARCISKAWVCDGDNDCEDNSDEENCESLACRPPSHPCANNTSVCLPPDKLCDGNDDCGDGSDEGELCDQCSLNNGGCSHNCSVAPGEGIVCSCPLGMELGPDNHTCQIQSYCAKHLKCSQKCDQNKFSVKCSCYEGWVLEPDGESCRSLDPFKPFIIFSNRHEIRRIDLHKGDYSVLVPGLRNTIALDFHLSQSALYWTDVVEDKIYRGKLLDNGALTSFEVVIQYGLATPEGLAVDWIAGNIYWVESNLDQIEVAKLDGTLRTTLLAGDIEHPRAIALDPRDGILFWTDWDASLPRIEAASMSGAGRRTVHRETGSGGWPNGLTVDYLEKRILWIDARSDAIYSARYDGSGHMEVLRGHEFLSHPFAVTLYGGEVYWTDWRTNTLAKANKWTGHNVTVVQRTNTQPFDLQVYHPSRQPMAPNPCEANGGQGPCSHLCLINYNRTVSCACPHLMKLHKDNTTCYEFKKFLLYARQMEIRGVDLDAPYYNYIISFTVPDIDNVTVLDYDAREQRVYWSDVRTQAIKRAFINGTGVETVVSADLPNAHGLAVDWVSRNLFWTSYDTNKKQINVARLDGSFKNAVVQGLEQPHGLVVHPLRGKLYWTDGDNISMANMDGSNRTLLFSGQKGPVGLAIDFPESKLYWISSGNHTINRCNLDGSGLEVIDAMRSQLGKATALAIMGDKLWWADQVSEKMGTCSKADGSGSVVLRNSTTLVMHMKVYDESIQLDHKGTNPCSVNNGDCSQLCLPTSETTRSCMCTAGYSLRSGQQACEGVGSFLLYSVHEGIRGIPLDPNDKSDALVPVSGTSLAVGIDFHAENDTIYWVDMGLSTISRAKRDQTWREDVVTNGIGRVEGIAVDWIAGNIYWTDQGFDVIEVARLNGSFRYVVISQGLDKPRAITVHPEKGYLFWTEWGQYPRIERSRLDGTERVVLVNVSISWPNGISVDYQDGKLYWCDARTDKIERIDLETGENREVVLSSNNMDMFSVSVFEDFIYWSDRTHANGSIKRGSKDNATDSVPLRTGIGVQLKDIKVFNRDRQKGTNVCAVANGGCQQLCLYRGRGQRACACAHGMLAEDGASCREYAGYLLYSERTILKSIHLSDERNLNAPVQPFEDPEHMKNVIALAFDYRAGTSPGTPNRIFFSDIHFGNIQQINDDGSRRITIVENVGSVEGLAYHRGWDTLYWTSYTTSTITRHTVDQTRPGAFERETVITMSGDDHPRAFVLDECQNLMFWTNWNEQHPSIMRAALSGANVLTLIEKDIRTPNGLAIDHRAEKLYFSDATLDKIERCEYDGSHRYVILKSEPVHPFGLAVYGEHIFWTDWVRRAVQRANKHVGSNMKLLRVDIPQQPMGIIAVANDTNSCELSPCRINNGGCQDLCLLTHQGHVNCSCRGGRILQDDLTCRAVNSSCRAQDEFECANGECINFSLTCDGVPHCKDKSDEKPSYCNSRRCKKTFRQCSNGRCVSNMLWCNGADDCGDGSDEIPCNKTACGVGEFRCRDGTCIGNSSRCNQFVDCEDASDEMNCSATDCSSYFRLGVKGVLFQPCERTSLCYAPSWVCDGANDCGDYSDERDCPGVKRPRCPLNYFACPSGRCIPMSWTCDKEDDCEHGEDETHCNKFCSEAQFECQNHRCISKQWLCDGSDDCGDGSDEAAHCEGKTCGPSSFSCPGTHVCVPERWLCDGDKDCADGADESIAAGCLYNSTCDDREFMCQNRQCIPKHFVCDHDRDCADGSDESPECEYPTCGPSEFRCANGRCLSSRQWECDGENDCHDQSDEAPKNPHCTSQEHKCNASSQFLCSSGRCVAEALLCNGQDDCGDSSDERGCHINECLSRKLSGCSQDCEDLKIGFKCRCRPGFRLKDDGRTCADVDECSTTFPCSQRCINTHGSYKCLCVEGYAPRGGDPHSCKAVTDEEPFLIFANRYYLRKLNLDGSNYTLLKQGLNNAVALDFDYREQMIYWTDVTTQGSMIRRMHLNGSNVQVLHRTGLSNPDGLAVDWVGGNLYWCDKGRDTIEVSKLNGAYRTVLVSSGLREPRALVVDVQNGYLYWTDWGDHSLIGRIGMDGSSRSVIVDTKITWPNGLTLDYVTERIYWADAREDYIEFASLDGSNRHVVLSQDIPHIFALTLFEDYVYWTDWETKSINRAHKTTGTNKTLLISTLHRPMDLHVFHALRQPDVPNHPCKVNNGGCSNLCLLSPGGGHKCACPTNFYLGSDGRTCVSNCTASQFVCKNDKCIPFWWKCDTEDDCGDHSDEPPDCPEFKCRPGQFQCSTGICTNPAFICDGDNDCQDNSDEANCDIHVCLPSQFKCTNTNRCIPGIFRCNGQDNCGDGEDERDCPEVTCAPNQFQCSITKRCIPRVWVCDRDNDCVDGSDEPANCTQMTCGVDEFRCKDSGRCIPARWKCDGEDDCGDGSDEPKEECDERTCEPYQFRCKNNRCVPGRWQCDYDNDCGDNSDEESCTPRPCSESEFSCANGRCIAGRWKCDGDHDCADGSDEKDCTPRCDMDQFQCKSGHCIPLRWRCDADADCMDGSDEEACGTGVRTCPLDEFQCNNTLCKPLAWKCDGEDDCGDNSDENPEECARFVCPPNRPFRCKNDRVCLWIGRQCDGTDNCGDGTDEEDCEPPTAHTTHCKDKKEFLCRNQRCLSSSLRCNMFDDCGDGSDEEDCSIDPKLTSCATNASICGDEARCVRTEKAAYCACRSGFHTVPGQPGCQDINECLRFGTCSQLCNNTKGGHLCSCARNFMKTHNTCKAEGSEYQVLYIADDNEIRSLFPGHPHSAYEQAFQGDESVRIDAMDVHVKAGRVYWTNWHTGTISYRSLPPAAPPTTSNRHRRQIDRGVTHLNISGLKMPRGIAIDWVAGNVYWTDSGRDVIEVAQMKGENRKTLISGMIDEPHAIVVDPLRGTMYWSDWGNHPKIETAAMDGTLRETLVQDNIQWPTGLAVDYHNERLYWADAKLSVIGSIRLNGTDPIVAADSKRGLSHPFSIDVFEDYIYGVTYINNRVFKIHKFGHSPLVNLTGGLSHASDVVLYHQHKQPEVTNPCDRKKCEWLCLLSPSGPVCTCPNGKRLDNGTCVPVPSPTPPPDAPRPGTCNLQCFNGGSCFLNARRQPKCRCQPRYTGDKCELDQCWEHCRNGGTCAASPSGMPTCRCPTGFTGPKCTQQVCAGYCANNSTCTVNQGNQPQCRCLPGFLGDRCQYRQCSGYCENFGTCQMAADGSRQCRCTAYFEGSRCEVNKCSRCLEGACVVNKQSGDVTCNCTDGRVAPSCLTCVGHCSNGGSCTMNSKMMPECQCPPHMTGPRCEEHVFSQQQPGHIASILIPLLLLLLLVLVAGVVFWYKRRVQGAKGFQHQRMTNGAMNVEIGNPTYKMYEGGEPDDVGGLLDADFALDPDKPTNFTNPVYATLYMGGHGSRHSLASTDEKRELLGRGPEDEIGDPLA
Nature of the assay: SPR; BIAcore T200; LRP-1 immobilised on a CM5 chip by amine coupling (3000 RU); 25 °C; 150 mM NaCl, 10 mM CaCl2, 50 mM Tris-HCl, 0.01% Tween-20, pH 7.5; 30 μl/min; ligands or pre-formed complexes injected; one-site binding model; triplicate. The following applies: both partners purified.
By Kd is commonly meant the concentration at which binding is half-saturated. Low readings indicate higher affinity, high ones lower affinity. As a reminder, the koff is the first-order rate constant of dissociation. Usually kon stands for the second-order rate constant of association. Higher therefore signals faster complex formation. Take B1: the Kd amounted to 0.6 nM, the koff stood at 0.00419 s⁻¹ and the kon came to 6.88e+06 M⁻¹ s⁻¹.

B2 had a Kd of 77.6 nM, a koff of 0.00381 s⁻¹ and a kon of 49000 M⁻¹ s⁻¹.

As for B3, the Kd came to 5.65 nM, the koff is 0.00321 s⁻¹ and the kon was 567000 M⁻¹ s⁻¹.

Turning to B4, the Kd came to 2.27 nM, the koff stood at 0.00678 s⁻¹ and the kon is 2.99e+06 M⁻¹ s⁻¹.

B5 came in with a Kd of 30.9 nM, a koff of 0.0109 s⁻¹ and a kon of 353000 M⁻¹ s⁻¹.

In turn, B6 had a Kd of 6.42 nM, a koff of 0.00254 s⁻¹ and a kon of 396000 M⁻¹ s⁻¹.

In turn, B7 showed a Kd of 4.5 nM, a koff of 0.00206 s⁻¹ and a kon of 457000 M⁻¹ s⁻¹.

On to B8, for which the Kd came to 8.67 nM, the koff was determined as 0.00386 s⁻¹ and the kon is 446000 M⁻¹ s⁻¹.

In the case of B9, the affinity, expressed as Kd, was 3.3 nM; the koff worked out at 0.00217 s⁻¹; the kon worked out at 659000 M⁻¹ s⁻¹.
